Each block holds one molecule with its values, some of them ahead of it.
Legend:
[1] = Example 8: screening of glucosidase variants for deglycosylation of saponins in crude bark extract (FIOP); format: biochemical, Quillaja saponaria; details: Rham Present; for Cumulative FIOP (cf WT): estimate; for FIOP: fold improvement over parent
Protocol: Libraries of genetic variants encoding mutations in the wild type Modestobacter marinus glucosidase (SEQ ID No. 262) were prepared using molecular biology techniques, enzymes were prepared linked to an N-terminally located His-tag. Single monoclonal colonies were grown in 400 ul of expression medium and protein expressed. Cell pellets were lysed in 200 ul of the relevant buffer (Table 16)
Lysate was diluted appropriately in the relevant buffer to allow a lysate loading of the indicated % loading (1% loading corresponds to use of 2 ul original lysate in a 200 ul reaction). In some experiments a rhamnosidase was also present during the screening reaction (and also in controls, negating any impact on results).
Crude bark extract (CBE) obtained by aqueous extraction of Quillaja saponaria and containing at least 2.80 mg/ml QS-21 (by HPLC-UV). The pH of CBE was adjusted to pH 6 by dropwise addition of 2M NaOH with stirring. The relevant concentration of the relevant glucosidase was added. The appropriate relative volume of pH 6 CBE (160 ul (for 80%) or 150 ul (for 75%)) was added to each well of the reaction plate. The reaction plate was sealed and incubated at the relevant temperature with shaking overnight for between 18 and 22 hours.
The reaction plate was quenched by adding 200 uL of MeCN (2% AcOH, 1 mg/mL hexanophenone) to each well of the plates. The quenched reaction plate was re-sealed and incubated at 20 deg C. with shaking for 10 min. The reaction plate was then centrifuged (10 min, 4 degC).
200 uL was transferred from each well of the quenched plate to the corresponding wells of a fresh 96 well plate and sealed. The plate was analysed by UV HPLC with the method below:
A negative control (a lysate not expressing test enzymes) and a positive control (expressing the parent comparator—wild type or previous variant as appropriate). Fold improvement over parent (FIOP) for the glucosidase (shorter method) is calculated as follows:
% right peak=100*right peak area/(right peak area+left peak area)
Average % right peak area is calculated for negative controls (per plate) and subtracted from all wells to give the increase in % right peak for each well above average negative control Average increase in % right peak is calculated for positive controls per plate
FIOP=observed increase in % right peak divided by average positive control increase

[2] = Example 10: deglucosylation of saponins in crude bark extract (50%) using WT and engineered glucosidases G1 to G5; format: biochemical, Quillaja saponaria; details: 7 h, 50% CBE, 35 degC; for % Right Peak: starting CBE 26; for % Left Peak: starting CBE 30; for % Middle Peak: starting CBE 44
Protocol: Lyophilised powders from clarified cell lysate expressing glucosidases (from Example 8 WT glucosidase and engineered glucosidase polypeptides G1 to G5) and rhamnosidases (from Example 9 WT rhamnosidase and engineered rhamnosidase polypeptides R1 to R5) were dissolved in 200 mM sodium acetate aqueous solution at pH 5.8 to prepare the enzyme solutions at 4 fold the final reaction concentration as shown in Tables 19 and 20.
Each glucosidase solution was combined with an equal volume of 200 mM sodium acetate aqueous solution at pH 5.8 and separately with an equal volume of 200 mM sodium acetate aqueous solution at pH 5.8 containing 2 mg/ml rhamnosidase R5. This is a sufficient loading of rhamnosidase to effect complete hydrolysis of the relevant rhamnose moiety within 4 hours.
CBE was adjusted to pH of 6.0 to 6.2 with 2M sodium hydroxide and an equal volume added to the enzyme solution to prepare the reaction mix (i.e. 50% CBE concentration in reaction mix) and the concentration of glucosidase and/or rhamnosidase is shown in Tables 19 and 20. The reaction mix was heated to 35 degC for the time indicated in Tables 19 and 20, after which the reaction was quenched by addition of an equal volume of MeCN containing 2% acetic acid and shaken at room temperature for 10 mins prior to centrifugation (10 min, 4 degC) to remove particulates. Samples were analysed by UV HPLC using method of Experiment 4-4.
The change in composition of the Left, Middle and Right peaks is shown in Tables 19 and 20. The composition changes by the action of the enzymes depending on the presence or absence of the partner enzyme. The extent of reaction is proportional to the enzyme concentration and the reaction time under these conditions. The tables show data for enzyme concentrations and the reaction times providing for equivalent extents of reaction. The improvement resulting from the mutations introduced for each variant is equal to the fold change in enzyme concentration×time (i.e. fold improvement=(enzyme concentration×time) for preceding variant÷(enzyme concentration×time) for later variant). A cumulative fold improvement over the original enzyme variant is calculated by the product of the individual fold improvements.

[3] = screen temp 20, pH 6, lysate loading 2.50%, CBE loading 80%, 100 mM Potassium phosphate
[4] = glucosidase 0.78 mg/ml + rhamnosidase R5 0.5 mg/ml
[5] = glucosidase 0.78 mg/ml, no rhamnosidase
[6] = screen temp 35, pH 6, lysate loading 0.28%, CBE loading 75%, 100 mM Sodium acetate
[7] = glucosidase 0.39 mg/ml + rhamnosidase R5 0.5 mg/ml
[8] = glucosidase 0.39 mg/ml, no rhamnosidase

Cumulative Fold improvement in primary enzyme loading × time [2, 4]: 64 | Fold improvement in primary enzyme loading × time [2, 4]: 2.0 | Cumulative Fold improvement in primary enzyme loading × time [2, 5]: 64 | Fold improvement in primary enzyme loading × time [2, 5]: 2.0
B1: Variant G3: engineered glucosidase polypeptide, variant of Modestobacter marinus glucosidase SEQ ID No. 262 (protein)
chain: MNPASSTRTDTMTDTTARTDSRLTDALAALSLEQKVQLLTGRDYWNTWPIEEIGLRRILVSDGPSGVRGEVWDERDPSLNLPSATALASAWDPDIARRYGAAAAVEARRKGVDVVLGPTINLHRSPLGGRHFEAFSEDPVLTAELAAAYVTGVQDNGVGATPKHYVANDFETDRFTVDVRADERTLRELYLLAFEKAVTEARAWLVMSAYNGINGATATENDLLETPLNSEWGFDGVVVSDWTAVRSLESARSSQDLVMPGPVGPWGDALVEAVRTGAIDESVVDRKVLRILTLAQRVGALEGSPAIDPVWVEDGVALAREAAVEGTVLLENRDELPWDATSLRKVAVIGNNAAAAMTQGGGSANVLPEYTVSPLDGVRAALPDAEVSYSLGAVVQDGLVELPLAELTNPVTGGPGLRARFLTADGAELFGEDRRKSVLVYQGGDAPIAAAATYELTARWTPTESQTVRLGFFCFGAAQLYVDGELLVESDLQPSGTDLGAAFMNPLTASAEVELVAGKPVDVRLVHDLSAKEGFAAHALFLQLGTEPAEVDEDALIAEAAEAAEAADVVLVVVGTNSIVESEGYDRESLSLPGRQDDLVRAVVAANPRTVVLVNAGAPVLLPWRDDVAALLLGWFGGQEFGNAVADVLLGVAEPGGRLPTTWPAAEADVPVLSCTPVDGVVEYTEGIHIGYRAWLRSGATPAYWFGSGQGYTCVELTGVEAPSRARPGEIVTVSVEVANRGERDGKQVVQVYAEKPDSTVDRPVRWLVGSAPVRVPAGQTAQVEVAVPTRYLAHWAGGWQYEPGVYRLRVGTTAVELPLETTLEVSA
modifications: Seq ID No. 262 with mutations T365N, R357M, A473F, L474C, I475F, F44Y, F442Q
Cumulative FIOP (cf WT) [1, 3]: 125 | FIOP [1, 3]: 2.5 | % change in Left Peak [2, 4]: −31% | % change in Middle Peak [2, 4]: −79% | % change in Right Peak [2, 4]: 270% | % Right Peak [2, 4]: 70% | % Left Peak [2, 4]: 21% | % Middle Peak [2, 4]: 9% | % change in Left Peak [2, 5]: −19% | % change in Middle Peak [2, 5]: −50% | % change in Right Peak [2, 5]: 206% | % Right Peak [2, 5]: 53% | % Left Peak [2, 5]: 24% | % Middle Peak [2, 5]: 22%

Cumulative Fold improvement in primary enzyme loading × time [2, 7]: 128 | Fold improvement in primary enzyme loading × time [2, 7]: 2.0 | Cumulative Fold improvement in primary enzyme loading × time [2, 8]: 128 | Fold improvement in primary enzyme loading × time [2, 8]: 2.0
B2: Variant G4: engineered glucosidase polypeptide, variant of Modestobacter marinus glucosidase SEQ ID No. 262 (protein)
chain: MNPASSTRTDTMTDTTARTDSRLTDALAALSLEQKVQLLTGRDYWNTWPIEEIGLRRILVSDGPSGVRGEVWDERDPSLNLPSATALASAWDPDIARRYGAAAAVEARRKGVDVVLGPTINLHRSPLGGRHFEAFSEDPVLTAELAAAYVTGVQDNGVGATPKHYVANDFETDRFTVDVRADERTLRELYLLAFEKAVTEARAWLVMSAYNGINGATATENDLLETPLNSEWGFDGVVVSDWTAVRSLESARSSQDLVMPGPLGPWGDALVEAVRTGAIDESVVDRKVLRILTLAQRVGALEGSPAIDPVWVEDGVALAREAAVEGTVLLENRDELPWDATSLRKVAVIGNNAAAAMTQGGGSANVLPEYTVSPLDGVRAALPDAEVSYSLGAVVQDGLVELPLAELTNPVTGGPGLRARFLTADGAELFGEDRRKSVLVYQGGDAPIAAAATYELTARWTPTESQTVRLGFFCFGAAQLYVDGELLVESDLQPSGTDLGAAFMNPLTASAEVELVAGKPVDVRLVHDLSAKEGFAAHALILQLGTEPAEVDEDALIAEAAEAAEAADVVLVVVGTNSIVESEGYDRESLSLPGRQDDLVRAVVAANPRTVVLVNAGAPVLLPWRDDVAALLLGWFGGQEFGNAVADVLLGVAEPGGRLPTTWPAAEADVPVLSCTPVDGVVEYTEGIHIGYRAWLRSGATPAYWFGSGQGYTCVELTGVEAPSRARPGEIVTVSVEVANRGERDGKQVVQVYAEKPDSTVDRPVRWLVGSAPVRVPAGQTAQVEVAVPTRYLAHWAGGWQYEPGVYRLRVGTTAVELPLETTLEVSA
modifications: Seq ID No. 262 with mutations T365N, R357M, A473F, L474C, I475F, F44Y, F442Q, V263L, F541I
Cumulative FIOP (cf WT) [1, 6]: 300 | FIOP [1, 6]: 2.4 | % change in Left Peak [2, 7]: −28% | % change in Middle Peak [2, 7]: −79% | % change in Right Peak [2, 7]: 267% | % Right Peak [2, 7]: 69% | % Left Peak [2, 7]: 22% | % Middle Peak [2, 7]: 9% | % change in Left Peak [2, 8]: −22% | % change in Middle Peak [2, 8]: −49% | % change in Right Peak [2, 8]: 208% | % Right Peak [2, 8]: 54% | % Left Peak [2, 8]: 23% | % Middle Peak [2, 8]: 23%

From patent publication US20240026407A1, “MODIFICATION OF SAPONINS” (GLAXOSMITHKLINE BIOLOGICALS SA, priority 2020, published 2024)
